These are literature values, as cited in PMC4394549.

The target of this series is Arginyl-tRNA synthetase (Methanothermobacter thermautotrophicus) (UniProt O27496).
UniProt O27496, sequence (O27496 whole entry): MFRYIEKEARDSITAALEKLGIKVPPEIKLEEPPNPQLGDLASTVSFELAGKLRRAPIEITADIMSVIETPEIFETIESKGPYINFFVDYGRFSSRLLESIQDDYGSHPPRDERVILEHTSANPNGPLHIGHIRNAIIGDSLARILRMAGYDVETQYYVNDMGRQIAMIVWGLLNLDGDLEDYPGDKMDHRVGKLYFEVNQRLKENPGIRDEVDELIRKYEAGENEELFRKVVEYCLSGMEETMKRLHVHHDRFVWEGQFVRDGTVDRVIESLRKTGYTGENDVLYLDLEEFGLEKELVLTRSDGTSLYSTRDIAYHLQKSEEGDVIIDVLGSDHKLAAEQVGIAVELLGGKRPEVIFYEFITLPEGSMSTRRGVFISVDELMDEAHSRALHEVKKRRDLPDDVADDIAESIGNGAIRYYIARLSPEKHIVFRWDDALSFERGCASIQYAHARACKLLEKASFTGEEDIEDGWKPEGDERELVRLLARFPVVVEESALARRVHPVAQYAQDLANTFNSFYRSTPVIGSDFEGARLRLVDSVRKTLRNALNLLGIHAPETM

As a reminder, the Kd is the constant that tells how readily two partners part at equilibrium. Take “Seryl-tRNA synthetase (from UniProt O27194)”: the Kd is 250 nM.
